Reference: patent publication US20070077603A1 (published 2007)

Legend:
[1] = molecular target: FXa/FVa (prothrombinase components) (UniProt P00742); test: cell-based or functional assay
[2] = molecular target: FXa/FVa (prothrombinase components) (UniProt P00742 41-179; P00742 235-488; P12259 29-737; P12259 1574-2224); test: cell-based or functional assay
[3] = molecular target: T1, C4b-binding protein (human, UniProt P04003 49-597; P20851 18-252); test: complex in hirudin-plasma, Superose-6 gel filtration and immunoblot from native PAGE
T1 construct: Endogenous plasma protein; also called C4BP
T1 sequence (looked up) 1: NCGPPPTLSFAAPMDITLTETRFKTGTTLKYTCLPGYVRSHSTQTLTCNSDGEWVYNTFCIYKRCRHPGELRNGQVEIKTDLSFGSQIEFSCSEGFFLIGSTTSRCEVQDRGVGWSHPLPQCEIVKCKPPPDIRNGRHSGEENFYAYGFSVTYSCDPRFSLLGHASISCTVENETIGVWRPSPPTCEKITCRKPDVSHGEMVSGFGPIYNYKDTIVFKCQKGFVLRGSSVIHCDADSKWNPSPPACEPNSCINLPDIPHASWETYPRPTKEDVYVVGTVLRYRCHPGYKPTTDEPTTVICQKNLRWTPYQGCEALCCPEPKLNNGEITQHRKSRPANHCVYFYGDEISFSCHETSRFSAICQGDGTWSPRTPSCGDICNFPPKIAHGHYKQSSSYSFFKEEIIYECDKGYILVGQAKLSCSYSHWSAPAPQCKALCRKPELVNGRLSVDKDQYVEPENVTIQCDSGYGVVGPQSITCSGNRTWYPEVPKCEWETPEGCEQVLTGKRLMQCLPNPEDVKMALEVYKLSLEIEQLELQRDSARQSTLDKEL
T1 sequence (looked up) 2: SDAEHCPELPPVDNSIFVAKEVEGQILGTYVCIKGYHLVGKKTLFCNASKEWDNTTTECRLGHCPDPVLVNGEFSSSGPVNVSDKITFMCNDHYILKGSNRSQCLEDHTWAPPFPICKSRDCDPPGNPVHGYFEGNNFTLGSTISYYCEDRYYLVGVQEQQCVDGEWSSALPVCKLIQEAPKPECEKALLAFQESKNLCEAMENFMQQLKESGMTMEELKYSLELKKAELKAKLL
Description: Gel filtration - - - Purified protein S preparations or hirudin-plasma (200 μl ) were fractionated on a 1×30 cm Superose-6 HR column using Fast Performance Liquid Chromatography (Amersham-Pharmacia, Piscattaway, N.J.) at a flow rate of 0.4 ml/min in Hepes-buffered saline (HBS). Hirudin and citrated plasmas (300 ul) were each mixed with 700 μl of 50 mM benzamidine and fractionated on a 1.6×60 cm Sephacryl-300 column at a flow rate of 0.4 ml/min in Tris-buffered saline. Fractions were analyzed for protein S antigen by ELISA, for protein S multimers by native PAGE, and for PS-direct. ELISAs were also performed on the fractions for FV, FX, and C4BP antigens
Fractionation of plasma - - - When hirudin-plasma was gel-filtered on Superose-6 (FIG. 8A), forms that could be identified by immunoblotting from native PAGE were PS-C4BP complexes (fractions 31-39), followed by putative protein S multimers of three types (arrows), and monomeric protein S (fractions 47-54). A smeared band near the void volume marked with ? […] The original quantity of multimers may have been greater than seen in FIG. 8A, since there was evidence of dissociation to monomer in most fractions. […]

[4] = molecular target: T2, human protein C (human, UniProt P04070 43-197; P04070 200-461); test: ligand blot from native 10% PAGE, biotin-DIP-FXa, streptavidin-HRP
T2 construct: Control vitamin K-dependent protein on the ligand blot (200 ng)
T2 sequence (P04070 43-197, chain 1 of 2): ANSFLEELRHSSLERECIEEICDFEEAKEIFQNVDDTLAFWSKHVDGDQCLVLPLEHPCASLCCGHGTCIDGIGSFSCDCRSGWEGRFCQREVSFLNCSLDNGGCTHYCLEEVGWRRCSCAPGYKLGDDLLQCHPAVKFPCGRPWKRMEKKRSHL
T2 sequence (P04070 200-461, chain 2 of 2): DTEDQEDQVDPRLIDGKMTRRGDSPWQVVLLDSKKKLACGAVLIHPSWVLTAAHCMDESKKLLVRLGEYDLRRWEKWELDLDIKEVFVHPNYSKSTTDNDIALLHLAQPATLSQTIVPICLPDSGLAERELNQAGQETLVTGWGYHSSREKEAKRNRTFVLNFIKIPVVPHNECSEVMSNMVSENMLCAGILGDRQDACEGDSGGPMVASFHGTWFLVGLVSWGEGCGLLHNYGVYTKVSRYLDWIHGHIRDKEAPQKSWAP
Description: (§1) For ligand blotting, FXa was treated with diisoproylfluorophosphate until >95% of its amidolytic activity was lost and then biotinylated as described (Heeb, et al. (1994) Proc. Natl. Acad. Sci. USA 91, 2728-2732). Blots containing 200 ng of protein S or control proteins were incubated with 3 μg/ml of this DIP-FXa for 1 h, followed by streptavidin-horse radish peroxidase (Pierce), chemiluminescent substrate and film exposure.
(§2) Ligand blotting of DIP-FXa to protein S monomers and dimers - - - Biotin-DIP-FXa could ligand blot to both protein S monomers and dimers, but not to two other vitamin K-dependent proteins (FIG. 3). DIP-FXa ligand blotted to monomers and multimers of protein S on native 10% PAGE, but not to human protein C or recombinant human Gas6. […] Note that protein S no. 1 has few monomers compared to protein S no. 2,and protein S no. 2 is <50% monomeric. (see FIG. 4).

[5] = molecular target: T3, recombinant human Gas6 (human, UniProt Q14393 49-678, limits assumed); test: as above
T3 construct: Control vitamin K-dependent protein on the ligand blot (200 ng)
T3 sequence (looked up): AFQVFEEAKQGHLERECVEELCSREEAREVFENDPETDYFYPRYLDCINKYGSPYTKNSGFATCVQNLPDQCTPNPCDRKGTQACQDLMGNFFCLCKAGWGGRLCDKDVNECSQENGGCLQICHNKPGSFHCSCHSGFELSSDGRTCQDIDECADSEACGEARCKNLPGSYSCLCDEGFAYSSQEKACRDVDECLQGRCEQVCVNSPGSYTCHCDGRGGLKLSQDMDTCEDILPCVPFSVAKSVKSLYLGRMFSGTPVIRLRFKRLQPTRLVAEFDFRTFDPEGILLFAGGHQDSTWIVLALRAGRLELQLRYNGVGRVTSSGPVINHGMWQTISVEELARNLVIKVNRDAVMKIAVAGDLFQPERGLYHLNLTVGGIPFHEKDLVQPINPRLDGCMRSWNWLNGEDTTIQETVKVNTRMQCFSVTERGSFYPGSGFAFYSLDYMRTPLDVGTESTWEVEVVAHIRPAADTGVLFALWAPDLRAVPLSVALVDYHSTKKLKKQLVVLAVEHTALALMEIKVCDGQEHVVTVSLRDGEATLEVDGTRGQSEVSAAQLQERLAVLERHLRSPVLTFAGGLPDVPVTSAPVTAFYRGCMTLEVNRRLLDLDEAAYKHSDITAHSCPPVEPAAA
Description: as §1, §2

Chain of FXa/FVa (prothrombinase components) (UniProt P00742 41-179; P00742 235-488; P12259 29-737; P12259 1574-2224) (P12259 29-737 limits assumed, chain 3 of 2): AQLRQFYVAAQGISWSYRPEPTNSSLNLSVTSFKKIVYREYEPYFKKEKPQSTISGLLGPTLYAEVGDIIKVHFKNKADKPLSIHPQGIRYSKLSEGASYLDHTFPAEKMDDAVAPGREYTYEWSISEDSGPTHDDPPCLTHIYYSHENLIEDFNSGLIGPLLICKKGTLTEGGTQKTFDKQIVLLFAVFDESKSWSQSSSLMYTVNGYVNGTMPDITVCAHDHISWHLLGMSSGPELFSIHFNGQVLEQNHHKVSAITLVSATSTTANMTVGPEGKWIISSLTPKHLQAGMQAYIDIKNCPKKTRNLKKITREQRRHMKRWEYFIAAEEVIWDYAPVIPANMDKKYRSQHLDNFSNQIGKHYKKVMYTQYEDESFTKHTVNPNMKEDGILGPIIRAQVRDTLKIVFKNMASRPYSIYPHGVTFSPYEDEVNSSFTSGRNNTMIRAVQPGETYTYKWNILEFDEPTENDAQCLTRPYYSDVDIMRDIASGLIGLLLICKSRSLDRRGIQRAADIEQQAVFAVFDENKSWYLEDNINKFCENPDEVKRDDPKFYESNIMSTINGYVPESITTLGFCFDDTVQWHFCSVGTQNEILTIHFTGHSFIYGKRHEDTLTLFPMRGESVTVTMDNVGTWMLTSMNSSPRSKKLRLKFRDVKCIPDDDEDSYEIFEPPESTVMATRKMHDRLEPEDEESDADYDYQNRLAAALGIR
Chain of FXa/FVa (prothrombinase components) (UniProt P00742 41-179; P00742 235-488; P12259 29-737; P12259 1574-2224) (P12259 1574-2224 limits assumed, chain 4 of 2): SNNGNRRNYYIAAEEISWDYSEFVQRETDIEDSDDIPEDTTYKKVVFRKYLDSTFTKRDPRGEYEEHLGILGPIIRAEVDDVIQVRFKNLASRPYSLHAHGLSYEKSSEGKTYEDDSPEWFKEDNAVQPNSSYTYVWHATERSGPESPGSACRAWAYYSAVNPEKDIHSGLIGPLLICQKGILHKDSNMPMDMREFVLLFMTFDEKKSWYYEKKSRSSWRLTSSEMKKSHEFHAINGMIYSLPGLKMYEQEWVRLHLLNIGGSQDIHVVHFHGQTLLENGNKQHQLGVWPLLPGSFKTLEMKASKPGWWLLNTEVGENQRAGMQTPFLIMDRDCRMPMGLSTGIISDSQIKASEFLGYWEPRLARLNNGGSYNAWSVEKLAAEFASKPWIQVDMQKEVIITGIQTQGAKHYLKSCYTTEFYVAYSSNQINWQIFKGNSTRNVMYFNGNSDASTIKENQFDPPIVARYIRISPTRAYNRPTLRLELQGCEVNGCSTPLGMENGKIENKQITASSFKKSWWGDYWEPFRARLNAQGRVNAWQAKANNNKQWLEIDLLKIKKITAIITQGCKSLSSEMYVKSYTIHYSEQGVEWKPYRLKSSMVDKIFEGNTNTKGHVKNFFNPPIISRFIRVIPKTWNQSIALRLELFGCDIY
Chain of FXa/FVa (prothrombinase components) (UniProt P00742) (P12259 29-737 limits assumed, chain 3 of 2): as the sequence (P12259 29-737 limits assumed, chain 3 of 2) above
Chain of FXa/FVa (prothrombinase components) (UniProt P00742) (P12259 1574-2224 limits assumed, chain 4 of 2): as the sequence (P12259 1574-2224 limits assumed, chain 4 of 2) above

protein S Trimer (from UniProt P07225 42-676)
Inhibition of prothrombinase, IC50 @ 25 µM PL, nM (total moles of protein S monomeric subunits) [1]: 113 nM
Inhibition of prothrombinase, IC50 @ 25 µM PL, nM of specific form [1]: 38 nM

protein S Dimer-Trimer fraction (from UniProt P07225 42-676)
Inhibition of prothrombinase, IC50 @ 25 µM PL, nM (total moles of protein S monomeric subunits) [1]: 116 nM
Inhibition of prothrombinase, IC50 @ 25 µM PL, nM of specific form [1]: 46 nM

protein S forms >Trimer (from UniProt P07225 42-676)
Inhibition of prothrombinase, IC50 @ 25 µM PL, nM (total moles of protein S monomeric subunits) [1]: 111 nM
Inhibition of prothrombinase, IC50 @ 25 µM PL, nM of specific form [1]: 28 nM

B1: protein S monomers (purified) (other, UniProt P07225 42-676, looked up)
chain: ANSLLEETKQGNLERECIEELCNKEEAREVFENDPETDYFYPKYLVCLRSFQTGLFTAARQSTNAYPDLRSCVNAIPDQCSPLPCNEDGYMSCKDGKASFTCTCKPGWQGEKCEFDINECKDPSNINGGCSQICDNTPGSYHCSCKNGFVMLSNKKDCKDVDECSLKPSICGTAVCKNIPGDFECECPEGYRYNLKSKSCEDIDECSENMCAQLCVNYPGGYTCYCDGKKGFKLAQDQKSCEVVSVCLPLNLDTKYELLYLAEQFAGVVLYLKFRLPEISRFSAEFDFRTYDSEGVILYAESIDHSAWLLIALRGGKIEVQLKNEHTSKITTGGDVINNGLWNMVSVEELEHSISIKIAKEAVMDINKPGPLFKPENGLLETKVYFAGFPRKVESELIKPINPRLDGCIRSWNLMKQGASGIKEIIQEKQNKHCLVTVEKGSYYPGSGIAQFHIDYNNVSSAEGWHVNVTLNIRPSTGTGVMLALVSGNNTVPFAVSLVDSTSEKSQDILLSVENTVIYRIQALSLCSDQQSHLEFRVNRNNLELSTPLKIETISHEDLQRQLAVLDKAMKAKVATYLGGLPDVPFSATPVNAFYNGCMEVNINGVQLDLDEAISKHNDIRAHSCPSVWKKTKNS
Inhibition of prothrombinase, IC50 @ 25 µM PL, nM (total moles of protein S monomeric subunits) [2]: 119 nM
Inhibition of prothrombinase, IC50 @ 25 µM PL, nM of specific form [2]: 119 nM of specific form

B2: protein S dimers (purified) (other, UniProt P07225 42-676, looked up)
chain: ANSLLEETKQGNLERECIEELCNKEEAREVFENDPETDYFYPKYLVCLRSFQTGLFTAARQSTNAYPDLRSCVNAIPDQCSPLPCNEDGYMSCKDGKASFTCTCKPGWQGEKCEFDINECKDPSNINGGCSQICDNTPGSYHCSCKNGFVMLSNKKDCKDVDECSLKPSICGTAVCKNIPGDFECECPEGYRYNLKSKSCEDIDECSENMCAQLCVNYPGGYTCYCDGKKGFKLAQDQKSCEVVSVCLPLNLDTKYELLYLAEQFAGVVLYLKFRLPEISRFSAEFDFRTYDSEGVILYAESIDHSAWLLIALRGGKIEVQLKNEHTSKITTGGDVINNGLWNMVSVEELEHSISIKIAKEAVMDINKPGPLFKPENGLLETKVYFAGFPRKVESELIKPINPRLDGCIRSWNLMKQGASGIKEIIQEKQNKHCLVTVEKGSYYPGSGIAQFHIDYNNVSSAEGWHVNVTLNIRPSTGTGVMLALVSGNNTVPFAVSLVDSTSEKSQDILLSVENTVIYRIQALSLCSDQQSHLEFRVNRNNLELSTPLKIETISHEDLQRQLAVLDKAMKAKVATYLGGLPDVPFSATPVNAFYNGCMEVNINGVQLDLDEAISKHNDIRAHSCPSVWKKTKNS
Inhibition of prothrombinase, IC50 @ 25 µM PL, nM (total moles of protein S monomeric subunits) [2]: 109 nM
Inhibition of prothrombinase, IC50 @ 25 µM PL, nM of specific form [2]: 54 nM of specific form

B3: monomeric protein S in plasma (other, human, UniProt P07225 42-676, looked up)
chain: ANSLLEETKQGNLERECIEELCNKEEAREVFENDPETDYFYPKYLVCLRSFQTGLFTAARQSTNAYPDLRSCVNAIPDQCSPLPCNEDGYMSCKDGKASFTCTCKPGWQGEKCEFDINECKDPSNINGGCSQICDNTPGSYHCSCKNGFVMLSNKKDCKDVDECSLKPSICGTAVCKNIPGDFECECPEGYRYNLKSKSCEDIDECSENMCAQLCVNYPGGYTCYCDGKKGFKLAQDQKSCEVVSVCLPLNLDTKYELLYLAEQFAGVVLYLKFRLPEISRFSAEFDFRTYDSEGVILYAESIDHSAWLLIALRGGKIEVQLKNEHTSKITTGGDVINNGLWNMVSVEELEHSISIKIAKEAVMDINKPGPLFKPENGLLETKVYFAGFPRKVESELIKPINPRLDGCIRSWNLMKQGASGIKEIIQEKQNKHCLVTVEKGSYYPGSGIAQFHIDYNNVSSAEGWHVNVTLNIRPSTGTGVMLALVSGNNTVPFAVSLVDSTSEKSQDILLSVENTVIYRIQALSLCSDQQSHLEFRVNRNNLELSTPLKIETISHEDLQRQLAVLDKAMKAKVATYLGGLPDVPFSATPVNAFYNGCMEVNINGVQLDLDEAISKHNDIRAHSCPSVWKKTKNS
notes: mature; also called monomers
binding result [3]: binds

B4: Biotin-DIP-FXa (enzyme)
chain 1: ANSFLEEMKKGHLERECMEETCSYEEAREVFEDSDKTNEFWNKYKDGDQCETSPCQNQGKCKDGLGEYTCTCLEGFEGKNCELFTRKLCSLDNGDCDQFCHEEQNSVVCSCARGYTLADNGKACIPTGPYPCGKQTLER
chain 2: IVGGQECKDGECPWQALLINEENEGFCGGTILSEFYILTAAHCLYQAKRFKVRVGDRNTEQEEGGEAVHEVEVVIKHNRFTKETYDFDIAVLRLKTPITFRMNVAPACLPERDWAESTLMTQKTGIVSGFGRTHEKGRQSTRLKMLEVPYVDRNSCKLSSSFIITQNMFCAGYDTKQEDACQGDSGGPHVTRFKDTYFVTGIVSWGEGCARKGKYGIYTKVTAFLKWIDRSMKTRGLPKAKSHAPEVITSSPLK
modifications: treated with diisoproylfluorophosphate until >95% of its amidolytic activity was lost and then biotinylated; biotinylated (sites not given)
notes: Used at 3 µg/ml as probe in ligand blots; also called FXa treated with diisopropylfluorophosphate and biotinylated
binding result [4]: no binding
binding result [5]: no binding
